These results are taken from the Immune Epitope Database (IEDB).

Experiment [1] concerns the target HLA-B*15:01. In words: IEDB peptide-MHC binding, purified MHC/competitive/radioactivity; filed as Kd, often an IC50 or EC50 that approximates it; ≥ and ≤ were set here for values at or beyond the usual limits of such assays.
The target of experiment [2] is HLA-B*15:01. In words: IEDB peptide-MHC binding, purified MHC/competitive/fluorescence; filed as Kd, often an IC50 or EC50 that approximates it; ≥ and ≤ were set here for values at or beyond the usual limits of such assays.
The target of a further experiment is HLA-A*32:01. As to the kind of experiment: IEDB peptide-MHC binding, purified MHC/competitive/radioactivity; filed as Kd, often an IC50 or EC50 that approximates it; ≥ and ≤ were set here for values at or beyond the usual limits of such assays.
Experiment [3] deals with HLA-A*02:01. As to the kind of experiment: IEDB peptide-MHC binding, purified MHC/competitive/fluorescence; filed as Kd, often an IC50 or EC50 that approximates it; ≥ and ≤ were set here for values at or beyond the usual limits of such assays. Conditions: source organism: Lassa virus Josiah.
The target in the next experiment is HLA-A*02:02. As to the kind of experiment: IEDB peptide-MHC binding, purified MHC/competitive/radioactivity; filed as Kd, often an IC50 or EC50 that approximates it; ≥ and ≤ were set here for values at or beyond the usual limits of such assays.
For a further experiment, the target named is HLA-A*02:06. The experiment is described as above.
A further experiment addresses HLA-A*02:03. The description is as above.
The target in a further experiment is HLA-A*68:02. The description is as above.
In experiment [4] the target is HLA-A*02:01. The experiment is described as above.
The next experiment has as its target HLA-A*01:01. Described as above. To be noted: source organism: Dengue virus 2 Jamaica/1409/1983.
A further experiment deals with HLA-B*45:01. The description is as above.
A further experiment has as its target HLA-B*18:01. The description is as above.
In another experiment the target is HLA-B*44:03. The experiment is described as above.
A further experiment has as its target HLA-B*44:02. The description is as above.
The target in the next experiment is HLA-B*40:02. The description is as above.
The target of another experiment is HLA-B*40:01. The description is as above.
Setting [5] is: source organism: Trypanosoma cruzi.
Where [6] appears, read: source organism: Dengue virus 2 Jamaica/1409/1983.
Where [7] appears, read: source organism: Mammarenavirus lassaense.
Setting [8] is: source organism: Vaccinia virus WR.
The mark [9] stands for this setting: source organism: Lymphocytic choriomeningitis virus (strain Armstrong).
Setting [10] is: source organism: Mammarenavirus machupoense.
Where [11] appears, read: source organism: SARS coronavirus Tor2.
Where [12] appears, read: source organism: Mammarenavirus juninense.

Broadly, the Kd is the equilibrium constant for the complex coming apart.

On to IQNSGGTSI, for which the dissociation constant (Kd) with HLA-B*15:01 [1] (source organism: Dengue virus 3 Martinique/1243/1999) is 25.7 nM.

For LGLNKIVRMY, the Kd with HLA-B*15:01 [2] (source organism: Human immunodeficiency virus 1) was found to be 1960 nM.

For LLLSINSSF, the Kd was determined as 0.883 nM with HLA-B*15:01 [1] (source organism: Variola virus) and 2090 nM in the experiment with HLA-A*32:01 (source organism: Variola virus).

In turn, QNGALAINTF came in with a dissociation constant Kd in the experiment with HLA-B*15:01 [2] (source organism: Human herpesvirus 4 type 2) of no less than 20000 nM.

With GILKSILKV, the Kd in the experiment with HLA-A*02:01 [3] amounted to 39.1 nM.

In the experiment with HLA-B*15:01 [2] (source organism: Yersinia pestis Nepal516), RSSMKLLSY displayed a Kd of 88.6 nM.

Regarding EVLRPTTLV, the Kd in the experiment with HLA-A*02:02 (setting [5]) was found to be 6570 nM; with HLA-A*02:06 (setting [5]), 1460 nM; with HLA-A*02:03 (setting [5]) it was 5480 nM; with HLA-A*68:02 (setting [5]) it was 6.8 nM; with HLA-A*02:01 [4] (setting [5]), 13700 nM.

Take QMSSGNLLF: the dissociation constant (Kd) with HLA-B*15:01 [1] (setting [6]) was 6.83 nM; in the experiment with HLA-A*01:01, 4390 nM.

As for FQRALIFILL, the dissociation constant (Kd) in the experiment with HLA-B*15:01 [1] (setting [6]) came to 117 nM.

Regarding IVIGVGNSAL, the Kd with HLA-B*15:01 [1] (source organism: Dengue virus 4 Dominica/814669/1981) came out at 52.9 nM.

In the case of KENLYIKSI, the Kd with HLA-B*45:01 (setting [7]) was 2150 nM; with HLA-B*18:01 (setting [7]), no less than 28800 nM; in the experiment with HLA-B*44:03 (setting [7]) it was 118 nM; with HLA-B*44:02 (setting [7]) it was 232 nM; with HLA-B*40:02 (setting [7]), 19.1 nM; with HLA-B*40:01 (setting [7]), 14200 nM.

For MSIDHCSSF, in the experiment with HLA-B*15:01 [1] (setting [8]), the Kd amounted to 0.952 nM.

For LTFDYVVTF, the Kd was 2.45 nM in the experiment with HLA-B*15:01 [1] (setting [8]) and 17.2 nM with HLA-A*32:01 (setting [8]).

Take QEADNMITEM: the dissociation constant Kd turned out to be 1190 nM with HLA-B*45:01 (setting [9]); 1470 nM with HLA-B*18:01 (setting [9]); 813 nM with HLA-B*44:03 (setting [9]); 224 nM with HLA-B*44:02 (setting [9]); 124 nM with HLA-B*40:02 (setting [9]); 5360 nM with HLA-B*40:01 (setting [9]).

As for RIEDMFLTSV, the Kd with HLA-A*02:02 (setting [8]) is 548 nM; with HLA-A*02:06 (setting [8]), 168 nM; with HLA-A*02:03 (setting [8]) it was 71 nM; with HLA-A*02:01 [4] (setting [8]) it was 48 nM.

In the case of PENQEDPLVL, the Kd was no less than 70000 nM in the experiment with HLA-B*45:01 (setting [10]); no less than 70400 nM with HLA-B*18:01 (setting [10]); no less than 70100 nM with HLA-B*44:03 (setting [10]); no less than 70200 nM in the experiment with HLA-B*44:02 (setting [10]); no less than 70800 nM with HLA-B*40:02 (setting [10]); no less than 39500 nM in the experiment with HLA-B*40:01 (setting [10]).

In the case of SELRPDTRY, the Kd turned out to be 1650 nM with HLA-B*45:01 (setting [11]); 11200 nM with HLA-B*18:01 (setting [11]); 714 nM with HLA-B*44:03 (setting [11]); 520 nM in the experiment with HLA-B*44:02 (setting [11]); 3140 nM with HLA-B*40:02 (setting [11]); 11300 nM with HLA-B*40:01 (setting [11]).

With KLHSGVDVF, the dissociation constant Kd with HLA-B*15:01 [1] (source organism: Dengue virus 4 Philippines/H241/1956) is 7.72 nM.

On to MEVQSLAMST, for which the Kd with HLA-B*45:01 (setting [11]) was 259 nM; with HLA-B*18:01 (setting [11]) it was 969 nM; in the experiment with HLA-B*44:03 (setting [11]), 951 nM; in the experiment with HLA-B*44:02 (setting [11]), 7210 nM; with HLA-B*40:02 (setting [11]) it was no less than 20100 nM; with HLA-B*40:01 (setting [11]), 2060 nM.

Regarding LEVKFNAPA, the equilibrium dissociation constant (Kd) in the experiment with HLA-B*45:01 (setting [11]) was 4.46 nM; in the experiment with HLA-B*18:01 (setting [11]), 111 nM; in the experiment with HLA-B*44:03 (setting [11]), 6010 nM; in the experiment with HLA-B*44:02 (setting [11]), no less than 21300 nM; in the experiment with HLA-B*40:02 (setting [11]), 9.33 nM; with HLA-B*40:01 (setting [11]), 5310 nM.

Take SDQKFVDVI: the dissociation constant (Kd) is 16700 nM with HLA-B*45:01 (setting [12]); no less than 26300 nM with HLA-B*18:01 (setting [12]); no less than 78100 nM in the experiment with HLA-B*44:03 (setting [12]); no less than 25400 nM with HLA-B*44:02 (setting [12]); 4430 nM with HLA-B*40:02 (setting [12]); no less than 70700 nM in the experiment with HLA-B*40:01 (setting [12]).

As to ELRLLIHQSL, the equilibrium dissociation constant (Kd) was determined as 1580 nM in the experiment with HLA-A*02:03 (source organism: Homo sapiens), 1130 nM with HLA-A*68:02 (source organism: Homo sapiens) and 1510 nM with HLA-A*02:01 [4] (source organism: Homo sapiens).

Turning to ELEALKTEL, the Kd with HLA-A*02:06 (source organism: Homo sapiens) is no less than 64600 nM; in the experiment with HLA-A*68:02 (source organism: Homo sapiens) it was 15900 nM; with HLA-A*02:01 [4] (source organism: Homo sapiens), no less than 54300 nM.
